The target of this test is T1, PEX14 NTD (1-104) (human, UniProt O75381 1-104).
T1 chain: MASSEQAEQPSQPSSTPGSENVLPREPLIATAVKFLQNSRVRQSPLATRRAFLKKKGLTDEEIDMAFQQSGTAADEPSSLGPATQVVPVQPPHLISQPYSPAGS
Briefly: ITC. On the technique in general: In ITC the heat of successive injections is recorded.

In general, Kd refers to a measure of binding affinity in units of concentration. The molecule ALSENWAQEFLAAGD [PEX5 W1 peptide] had an equilibrium dissociation constant (Kd) of 72 nM.

AQAEQWAAEFIQQQG [PEX5 W5 peptide] showed a Kd of 21 nM.

These data come from PMC11024197 (2024).
